# Laboratory results reported in paper PMC6609335.
# Legend:
# [1] = target: Andes virus (ANDV) envelope glycoprotein Gc, wild type (Andes virus) (UniProt Q9E006); assay: sucrose gradient sedimentation
# [2] = target: Andes virus (ANDV) envelope glycoprotein Gc, wild type (Andes virus) (UniProt Q9E006); assay: native gel or EMSA
substance,measurement,setting,value
"Andes virus (ANDV) envelope glycoprotein Gc, wild type (from UniProt Q9E006) (natural protein)",stoichiometry N,[1],3
same,stoichiometry N,[2],3
